The target in the series is HIV-1 RT wild type (HIV-1, UniProt P04585;P04585 588-1147;588-1027). In words: competition (inhibition of polymerase activity); 6 mM Mg2+; 24 nM template-primer; 80 mM KCl, 50 mM Tris-Cl pH 8.0, 6 mM MgCl2, 1 mM DTT, 0.1 mg/ml BSA, 24 nM template-primer (16S rRNA/VP200), dNTPs, 25 ng RT per 50 ul, 37 C, 15 min; IC50 of p. The following applies: protein: recombinant; copies: 1;1.

B1: RT1t49 (ssDNA)
DNA: ATCCGCCTGATTAGCGATACTCAGAAGGATAAACTGTCCAGAACTTGGA
As a reminder, the IC50 is the concentration at which inhibition is half-maximal. Take B1: the half-inhibitory concentration (IC50) turned out to be 1.5 ± 0.03 nM.

The values above are taken from PMC1266348, “HIV-1 reverse transcriptase mutations that confer decreased in vitro susceptibility to anti-RT DNA aptamer RT1t49 confer cross resistance to other anti-RT aptamers but not to standard RT inhibitors”.
